The record followed here is patent US20230346885A1 (published 2023).

Common to all, as to assay: binding, other
The target of experiment [1] is T1, TRPM1 peptide on HLA (human).
T1 peptide: RLGQGVPLV

The target of a further experiment is T2, BRDT peptide on HLA (human).
T2 peptide: RLLDVNNQL

A further experiment addresses T3, KLK4 peptide on HLA (human).
T3 peptide: SIASQCPTA

A further experiment deals with T4, SMC1B peptide on HLA (human).
T4 peptide: NIQELIHGA

Another experiment addresses T5, NPSR1 peptide on HLA (human).
T5 peptide: AINPLIYCV

Experiment [2] concerns the target T6, TRPM1 peptide on HLA (human).
T6 peptide: RLLEKHISL

The target in a further experiment is T7, XAGE1 peptide on HLA (human).
T7 peptide: ISQTPGINL

Another experiment addresses T8, LGSN peptide on HLA (human).
T8 peptide: ALGETFIRYFV

For a further experiment, the target named is T9, PAEP peptide on HLA (human).
T9 peptide: LLDTDYDNFL

In the next experiment the target is T10, ASCL2 peptide on HLA (human).
T10 peptide: ALSPAERELL

Numbering of substitutions follows the chain as printed.

B1: TCR of SEQ ID NOs 599 and 600 (TCR, V domains shown)
Valpha: KQEVTQIPAALSVPEGENLVLNCSFTDSAIYNLQWFRQDPGKGLTSLLLIQSSQREQTSGRLNASLDKSSGRSTLYIAASQPGDSATYLCAVSGSWGKLQFGAGTQVVVTP
Vbeta: NAGVTQTPKFRVLKTGQSMTLLCAQDMNHEYMYWYRQDPGMGLRLIHYSVGEGTTAKGEVPDGYNVSRSTTEDFPLRLLSAAPSQTSVYFCASSLMDRPGEQFFGPGTRLTVL
On to B1, for which the binding result with TRPM1 peptide on HLA [1] is “recognises”.

B2: TCR of SEQ ID NOs 601 and 602 (TCR, V domains shown)
Valpha: B1 Valpha with S93T, G94D
Vbeta: NAGVTQTPKFRVLKTGQSMTLLCAQDMNHEYMYWYRQDPGMGLRLIHYSVGEGTTAKGEVPDGYNVSRLKKQNFLLGLESAAPSQTSVYFCASSYADTYEQYFGPGTRLTVT
As for B2, in the experiment with TRPM1 peptide on HLA [1], the binding result is on record as “recognises”.

B3: TCR of SEQ ID NOs 603 and 604 (TCR, V domains shown)
Valpha: B1 Valpha with S93R, G94D, L99F
Vbeta: NAGVTQTPKFQVLKTGQSMTLQCAQDMNHNSMYWYRQDPGMGLRLIYYSASEGTTDKGEVPNGYNVSRLNKREFSLRLESAAPSQTSVYFCASSEWAWGLGTEAFFGQGTRLTVV
Turning to B3, in the experiment with TRPM1 peptide on HLA [1], the binding result is on record as “recognises”.

B4: TCR of SEQ ID NOs 319 and 320 (TCR, V domains shown)
Valpha: KQEVTQIPVALSVPEGENLVLNCSFTDSAIYNLQWFRQDPGKGLTSLLLIQSSQREQTSGRLNASLDKSSGRSTLYIAASQPGDSATYLCAVKGGANNLFFGTGTRLTVIP
Vbeta: NAGVTQTPKFRILKIGQSMTLQCTQDMNHNYMYWYRQDPGMGLKLIYYSVGAGITDKGEVPNGYNVSRSTTEDFPLRLLSAAPSQTSVYFCASRGDGDRSPLHFGNGTRLTVT
Turning to B4, the binding result in the experiment with BRDT peptide on HLA was “recognises”.

B5: TCR of SEQ ID NOs 321 and 322 (TCR, V domains shown)
Valpha: B4 Valpha with V9A, K93R, A96Y, N97Q, N98K, L99V, F100T, R106K, T108Q
Vbeta: B4 Vbeta with R11Q, I12V, I15T, T24A, Y31S, K44R, Y47H, K57Q
On to B5, for which the binding result in the experiment with BRDT peptide on HLA was “recognises”.

B6: TCR of SEQ ID NOs 401 and 402 (TCR, V domains shown)
Valpha: KQEVTQIPAALSVPEGENLVLNCSFTDSAIYNLQWFRQDPGKGLTSLLLIQSSQREQTSGRLNASLDKSSGRSTLYIAASQPGDSATYLCAVSPPAAGNKLTFGGGTRVLVKP
Vbeta: NAGVTQTPKFRILKIGQSMTLQCAQDMNHNYMYWYRQDPGMGLKLIYYSVGAGITDKGEVPNGYNVSRSTTEDFPLRLELAAPSQTSVYFCASSLTWTGGFGYTFGSGTRLTVV
Consider B6, for which, in the experiment with KLK4 peptide on HLA, the binding result was “recognises”.

B7: TCR of SEQ ID NOs 403 and 404 (TCR, V domains shown)
Valpha: KQEVTQIPAALSVPEGENLVLNCSFTDSAIYNLQWFRQDPGKGLTSLLLIQSSQREQTSGRLNASLDKSSGRSTLYIAASQPGDSATYLCAVRPRGDSWGKLQFGAGTQVVVTP
Vbeta: NAGVTQTPKFQVLKTGQSMTLQCAQDMNHEYMSWYRQDPGMGLRLIHYSVGAGITDQGEVPNGYNVSRSTTEDFPLRLLSAAPSQTSVYFCASSPTGYGEAFFGQGTRLTVV
Consider B7, for which the binding result with KLK4 peptide on HLA is recorded as “recognises”.

B8: TCR of SEQ ID NOs 595 and 596 (TCR, V domains shown)
Valpha: B7 Valpha with R93K, P94E, R95G, G96T, L102F
Vbeta: NAGVTQTPKFRVLKTGQSMTLLCAQDMNHEYMYWYRQDPGMGLRLIHYSVGEGTTAKGEVPDGYNVSRLKKQNFLLGLESAAPSQTSVYFCASSYPSREAFFGQGTRLTVV
Take B8: the binding result with SMC1B peptide on HLA is on record as “recognises”.

B9: TCR of SEQ ID NOs 441 and 442 (TCR, V domains shown)
Valpha: QKEVEQNSGPLSVPEGAIASLNCTYSDRGSQSFFWYRQYSGKSPELIMSIYSNGDKEDGRFTAQLNKASQYVSLLIRDSQPSDSATYLCAVNDSGGYQKVTFGTGTKLQVIP
Vbeta: B7 Vbeta with P95Y, T96S, G97P, Y98G, G99N, E100G, A101Y, F102T, Q105S
Regarding B9, the binding result with NPSR1 peptide on HLA is reported as “recognises”.

B10: TCR of SEQ ID NOs 607 and 608 (TCR, V domains shown)
Valpha: KQEVTQIPAALSVPEGENLVLNCSFTDSAIYNLQWFRQDPGKGLTSLLLIQSSQREQTSGRLNASLDKSSGRSTLYIAASQPGDSATYLCAVRGMNTGFQKLVFGTGTRLLVSP
Vbeta: NAGVTQTPKFQVLKTGQSMTLQCAQDMNHEYMSWYRQDPGMGLRLIHYSVGAGITDQGEVPNGYNVSRSTTEDFPLRLLSAAPSQTSVYFCASSPGVTSTEAFFGQGTRLTVV
As for B10, in the experiment with TRPM1 peptide on HLA [2], the binding result is “recognises”.

B11: TCR of SEQ ID NOs 615 and 616 (TCR, V domains shown)
Valpha: QKEVEQNSGPLSVPEGAIASLSCTYSDRGSQSFFWYRQYSGKSPELIMSIYSNGDKEDGRFTAQLNKASQYVSLLIRDSQPSDSATYLCAVGAGGYNKLIFGAGTRLAVHP
Vbeta: NAGVTQTPKFRVLKTGQSMTLQCTQDMNHNYMYWYRQDPGMGLRLIHYSVGEGTTAKGEVPDGYNVSRSTTEDFPLRLLSAAPSQTSVYFCASRREGPLHFGNGTRLTVT
As to B11, the binding result with XAGE1 peptide on HLA was “recognises”.

B12: TCR of SEQ ID NOs 605 and 606 (TCR, V domains shown)
Valpha: KQEVTQIPAALSVPEGENLVLNCSFTDSAIYNLQWFRQDPGKGLTSLLLIQSSQREQTSGRLNASLDKSSGRSTLYIAASQPGDSATYLCAAATRNNTGKLIFGQGTTLQVKP
Vbeta: NAGVTQTPKFRILKIGQSMTLQCTQDMNHNYMYWYRQDPGMGLKLIYYSVGAGITDKGEVPNGYNVSRSTTEDFPLRLELAAPSQTSVYFCASSKSDLGGYTFGSGTRLTVV
Consider B12, for which, in the experiment with TRPM1 peptide on HLA [2], the binding result was “recognises”.

B13: TCR of SEQ ID NOs 415 and 416 (TCR, V domains shown)
Valpha: KQEVTQIPAALSVPEGENLVLNCSFTDSAIYNLQWFRQDPGKGLTSLLLIQSSQREQTSGRLNASLDKSSGRSTLYIAASQPGDSATYLCAVRGYQKVTFGTGTKLQVIP
Vbeta: NAGVTQTPKFQVLKTGQSMTLQCAQDMNHEYMSWYRQDPGMGLRLIHYSVGAGITDQGEVPNGYNVSRSTTEDFPLRLLSAAPSQTSVYFCASSPGIGELFFGEGSRLTVL
For B13, the binding result with LGSN peptide on HLA is given as “recognises”.

B14: TCR of SEQ ID NOs 471 and 472 (TCR, V domains shown)
Valpha: KQEVTQIPAALSVPEGENLVLNCSFTDSAIYNLQWFRQDPGKGLTSLLLIQSSQREQTSGRLNASLDKSSGRSTLYIAASQPGDSATYLCAVSPINDYKLSFGAGTTVTVRA
Vbeta: KAGVTQTPRYLIKTRGQQVTLSCSPISGHRSVSWYQQTPGQGLQFLFEYFSETQRNKGNFPGRFSGRQFSNSRSEMNVSTLELGDSALYLCASSLVGTGGSPLHFGNGTRLTVT
On to B14, for which the binding result with PAEP peptide on HLA is on record as “recognises”.

B15: TCR of SEQ ID NOs 299 and 300 (TCR, V domains shown)
Valpha: QKEVEQNSGPLSVPEGAIASLNCTYSDRGSQSFFWYRQYSGKSPELIMSIYSNGDKEDGRFTAQLNKASQYVSLLIRDSQPSDSATYLCAVDTGRRALTFGSGTRLQVQP
Vbeta: NAGVTQTPKFQVLKTGQSMTLLCAQDMNHNSMYWYRQDPGMGLRLIYYSASEGTTDKGEVPNGYNVSRLNKREFSLRLESAAPSQTSVYFCASSVGGTYGYTFGSGTRLTVV
On to B15, for which the binding result with ASCL2 peptide on HLA is given as “recognises”.

B16: TCR of SEQ ID NOs 437 and 438 (TCR, V domains shown)
Valpha: B15 Valpha with D92G, T93G, R95A, R96D, A97G, S102K, R105H, Q107I, V108I
Vbeta: NAGVTQTPKFRILKIGQSMTLQCTQDMNHNYMYWYRQDPGMGLKLIYYSVGAGITDKGEVPNGYNVSRSTTEDFPLRLELAAPSQTSVYFCASSYGNLGTEAFFGQGTRLTVV
Regarding B16, in the experiment with NPSR1 peptide on HLA, the binding result was “recognises”.

B17: TCR of SEQ ID NOs 469 and 470 (TCR, V domains shown)
Valpha: B15 Valpha with D92R, T93R, G94N, R95T, R96D, A97K, T99I, S102T, Q109F
Vbeta: DTGVSQNPRHKITKRGQNVTFRCDPISEHNRLYWYRQTLGQGPEFLTYFQNEAQLEKSRLLSDRFSAERPKGSFSTLEIQRTEQGDSAMYLCASSPRDRSPYGYTFGSGTRLTVV
Regarding B17, the binding result with PAEP peptide on HLA is “recognises”.

B18: TCR of SEQ ID NOs 301 and 302 (TCR, V domains shown)
Valpha: B15 Valpha
Vbeta: B15 Vbeta with L22Q, V95T, T98S
Regarding B18, the binding result in the experiment with ASCL2 peptide on HLA was “recognises”.

B19: TCR of SEQ ID NOs 613 and 614 (TCR, V domains shown)
Valpha: B15 Valpha with D92N, T93E, R95Y, R96Q, A97K, L98V, S102I, R105K, Q109I
Vbeta: NAGVTQTPKFQVLKTGQSMTLQCAQDMNHEYMYWYRQDPGMGLRLIHYSVGAGITDQGEVPNGYNVSRSTTEDFPLRLLSAAPSQTSVYFCASSRDYDYGQYFGPGTRLTVT
On to B19, for which the binding result with XAGE1 peptide on HLA is on record as “recognises”.

B20: TCR of SEQ ID NOs 417 and 418 (TCR, V domains shown)
Valpha: KQEVTQIPAALSVPEGENLVLNCSFTDSAIYNLQWFRQDPGKGLTSLLLIQSSQREQTSGRLNASLDKSSGRSTLYIAASQPGDSATYLCAVRAQGGSEKLVFGKGTKLTVNP
Vbeta: NAGVTQTPKFRILKIGQSMTLQCTQDMNHNYMYWYRQDPGMGLKLIYYSVGAGITDKGEVPNGYNVSRSTTEDFPLRLELAAPSQTSVYFCASSYLGQDPEGAEAFFGQGTRLTVV
Consider B20, for which the binding result with LGSN peptide on HLA was “recognises”.

B21: TCR of SEQ ID NOs 609 and 610 (TCR, V domains shown)
Valpha: B20 Valpha with R93P
Vbeta: NAGVTQTPKFQVLKTGQSMTLQCAQDMNHEYMSWYRQDPGMGLKLIYYSVGAGITDKGEVPNGYNVSRSTTEDFPLRLESAAPSQTSVYFCASTESPYYGYTFGSGTRLTVV
On to B21, for which, in the experiment with TRPM1 peptide on HLA [2], the binding result is on record as “recognises”.

B22: TCR of SEQ ID NOs 597 and 598 (TCR, V domains shown)
Valpha: KQEVTQIPAALSVPEGENLVLNCSFTDSAIYNLQWFRQDPGKGLTSLLLIQSSQREQTSGRLNASLDKSSGRSTLYIAASQPGDSATYLCAVWSWGKLQFGAGTQVVVTP
Vbeta: B8 Vbeta with Y95R, P96G, S97V, R98P, A100V
As for B22, the binding result in the experiment with SMC1B peptide on HLA is given as “recognises”.
